Experimental data: PMC6401464 (Journal of Virology, 2019)

Key:
[1] = target: T1, GI.1 P domain (Norwalk virus) (Norwalk virus (human norovirus GI.1), UniProt Q83884); assay: ELISA; direct ELISA; P domain or VLPs coated on MaxiSorp plates, serially diluted Nanobodies (1:1 in PBS, starting at 100 μg/ml) for 1 h at 37°C, detected with HRP-conjugated anti-polyhistidine antibody; cutoff OD490 0.15; conditions: both partners purified
T1 construct: also called GI.1 capsid-protruding (P) domain; GI P domain

[2] = target: T1, GI.1 P domain (Norwalk virus); assay: ITC; Nano-7 (150 μM) injected in 0.5 μl aliquots into GI.1 P domain (15 μM), PBS, 35°C, one-site binding model; conditions: both partners purified
[3] = target: T1, GI.1 P domain (Norwalk virus); assay: ITC; Nano-62 (150 μM) injected in 2 μl aliquots into GI.1 P domain (15 μM), PBS, 30°C, one-site binding model; conditions: both partners purified
crystal structure = target: the molecule itself; assay: crystal structure
[4] = target: T1, GI.1 P domain (Norwalk virus); assay: ITC; Nano-94 (150 μM) injected in 2 μl aliquots into GI.1 P domain (15 μM), PBS, 25°C, one-site binding model; conditions: both partners purified

B1: Nano-7 (VHH)
VHH: QVQLQESGGGLVQAGGSLRLSCAVSGRTFSNYYSGWFRQAPGKEREFLASIRWSDSTTNYADSVKGRFTISRDTAKNTVYLQMNSLKLEDTAVYHCAARRLATYDYWGQGTQVTVSS
notes: also called Nanobody 7
- detection level (ELISA, cutoff OD490 0.15) [1]: 0.2 µg/mL
- Kd [2]: 0.163 nM
- stoichiometry N [2]: ~1

B2: Nano-62 (VHH)
VHH: QVQLQESGGGLVMTGGSLRLSCAVSGRTIDVSVMAWFRQAPGKEREFVSGMRWSGMTTYSADSVKDRFTISRDKTKNTVYLQMNSLKPEDTAVYYCAARSRFIVGVPQARDLYDYWGQGTQVTVSS
notes: also called Nanobody 62
- detection level (ELISA, cutoff OD490 0.15) [1]: 0.1 µg/mL
- Kd [3]: 4.58 nM
- stoichiometry N [3]: ~1

B3: GI.1 P domain (Norwalk virus) (domain or fragment)
chain: EQKTRPFTLPNLPLSSLSNSRAPLPISSMGISPDNVQSVQFQNGRCTLDGRLVGTTPVSLSHVAKIRGTSNGTVINLTELDGTPFHPFEGPAPIGFPDLGGCDWHINMTQFGHSSQTQYDVDTTPDTFVPHLGSIQANGIGSGNYVGVLSWISPPSHPSGSQVDLWKIPNYGSSITEATHLAPSVYPPGFGEVLVFFMSKMPGPGAYNLPCLLPQEYISHLASEQAPTVGEAALLHYVDPDTGRNLGEFKAYPDGFLTCVPNGASSGPQQLPINGVFVFVSWVSRFYQLKPVGT
notes: also called GI.1 capsid-protruding (P) domain; GI P domain
- binding result (crystal structure): binds

B4: Nano-94 (VHH)
VHH: QVQLQESGGGLVQAGGSLRLSCAASGRMFSINSMGWYRQAPGKERELVATISEAGTTTYADSVRGRFTIARDNAKNTVYLQMNSLNPEDTAVYYCNAYIQLDSTIWFRAYWGQGTQVTVSS
notes: also called Nanobody 94
- Kd [4]: 43.4 nM
- stoichiometry N [4]: ~1
- detection level (ELISA, cutoff OD490 0.15) [1]: 0.1 µg/mL
